The record followed here is the supplement of paper PMC7877785.

± gives the uncertainty stated by the source.

A short description of this series: self-splicing fitness, log relative to wild type (ln ratio); higher = more splicing; Tetrahymena group I intron in knt gene, E. coli kanamycin selection, DiMSum; sequences stand for … in CUCUCU…GGAGGGAAAAGUUAUCAGGCAUGCACCUGGUAGCUAGUCUUUAAACCAAUAGAUUGCAUCGGUUUAAAAGGCAAGACCGUCAAAUUGCGGGAAAGGGGUCAACAGCCGUUCAGUACCAAGUCUCAGGGGAAACUUUGAGAUGGCCUUGCAAAGGGUAUGGUAAUAAGCUGACGGACAUGGUCCUAACCACGCAGCCAAGUCCUAAGUCAACAGAUCUUCUGUUGAUAUGGAUGCAGUUCACAGACUAAAUGUCGGUCGGGGAAGAUGUAUUCUUCUCAUAAGAUAUAGUCGGACCUCUCCUUAAUGGGAGCUAGCGGAUGAAGUGAUGCAACACUGGAGCCGCUGGGAACUAAUUUGUAUGCGAAAGUAUAUUGAUUAGUUUUGGAGUACUCGUGGUCG
Put shortly:
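Pooled colonies went to amplicon sequencing on an Illumina HiSeq 2500 after six replicate transformations. The plates were LB agar with 100 μg/mL carbenicillin, 50 μM IPTG and 0.2% rhamnose, with or without 25 μg/mL kanamycin, incubated overnight at 37°C or 30°C. The E. coli BL21(DE3) library had all eight P1ex-region intron nucleotides randomised, the intron placed in the knt kanamycin-resistance gene on pET-22b(+). DiMSum fitness is the error-weighted combination of replicate fold changes, kanamycin against none, normalised to wild type.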

Consider GCAAAGCAAUAUUACGCACC, for which the “self-splicing fitness (ln)” value reads like this: (30 °C) -1.15 ± 0.17; (37 °C) -1.45 ± 0.16.
With ACAUAGCAAUAUUACGGACC, the “self-splicing fitness (ln)” value is -1.56 ± 0.12 (30 °C) and -1.84 ± 0.23 (37 °C).
In the case of UUGAAGCAAUAUUACGCUAC, the “self-splicing fitness (ln)” value (37 °C) is -1.75 ± 0.37.
As for CAAUAGCAAUAUUACGUGCA, the “self-splicing fitness (ln)” value runs as follows: (30 °C) -2.72 ± 0.19; (37 °C) -1.27 ± 0.15.
On to CGACAGCAAUAUUACGUACA, for which the “self-splicing fitness (ln)” value is, setting by setting: (30 °C) -0.66 ± 0.078; (37 °C) -0.392 ± 0.099.
For CUCGAGCAAUAUUACGCAAA the same measures were -2.55 ± 0.33 and -3.66 ± 0.46.
For CAAUAGCAAUAUUACGCAAU the same measures were -3.23 ± 0.34 and -2.09 ± 0.28.
For ACCUAGCAAUAUUACGUCGU the same measures were -0.733 ± 0.045 and -0.455 ± 0.059.
Consider AUCGAGCAAUAUUACGGAUU, for which the “self-splicing fitness (ln)” value was -3.48 ± 0.22 (30 °C) and -1.26 ± 0.17 (37 °C).
Taken in the same sequence, the figures for AACCAGCAAUAUUACGAACG were -1.27 ± 0.08 and -1.25 ± 0.089.
Taken in the same sequence, the figures for ACGGAGCAAUAUUACGAAAU were -2.71 ± 0.22 and -1.76 ± 0.24.
Turning to GUGUAGCAAUAUUACGUCGA, the “self-splicing fitness (ln)” value was -1.11 ± 0.14 (30 °C) and -0.586 ± 0.12 (37 °C).
On to UACCAGCAAUAUUACGAUUA, for which the “self-splicing fitness (ln)” value was -0.0875 ± 0.065 (30 °C) and 0.118 ± 0.075 (37 °C).
For UUAUAGCAAUAUUACGCGGA the same measures were -1.6 ± 0.12 and -0.96 ± 0.14.
For CCUAAGCAAUAUUACGCUUU the same measures were -3.09 ± 0.23 and -2.17 ± 0.26.
For UGUCAGCAAUAUUACGGGGC, the “self-splicing fitness (ln)” value by setting is: (30 °C) -2.84 ± 0.16; (37 °C) -3.02 ± 0.26.
Regarding UCAUAGCAAUAUUACGCGUU, the “self-splicing fitness (ln)” value (30 °C) was -3.38 ± 0.27 and the “self-splicing fitness (ln)” value (37 °C) is -3.03 ± 0.27.
Consider CUUGAGCAAUAUUACGGGAC, for which the “self-splicing fitness (ln)” value was -3.63 ± 0.29 (30 °C) and -2.56 ± 0.3 (37 °C).
ACGAAGCAAUAUUACGAAAG: the “self-splicing fitness (ln)” value was -3.2 ± 0.12 (30 °C) and -2.32 ± 0.16 (37 °C).
Turning to UUGCAGCAAUAUUACGGGUA, the “self-splicing fitness (ln)” value (30 °C) is -1.76 ± 0.097 and the “self-splicing fitness (ln)” value (37 °C) is -0.893 ± 0.087.
Consider UGGUAGCAAUAUUACGCCUG, for which the “self-splicing fitness (ln)” value (30 °C) turned out to be 0.0915 ± 0.14 and the “self-splicing fitness (ln)” value (37 °C) worked out at 0.675 ± 0.2.
For the sequence UUCUAGCAAUAUUACGCGAC, the “self-splicing fitness (ln)” value (30 °C) is -1.97 ± 0.38.
As for GAUCAGCAAUAUUACGCGGU, the “self-splicing fitness (ln)” value runs as follows: (30 °C) -2.98 ± 0.16; (37 °C) -1.85 ± 0.24.
Take CCGCAGCAAUAUUACGACAC: the “self-splicing fitness (ln)” value reads like this: (30 °C) -2.84 ± 0.28; (37 °C) -2.71 ± 0.38.
For CGCGAGCAAUAUUACGACGG the same measures were -0.512 ± 0.1 and -0.452 ± 0.11.
On to UCAAAGCAAUAUUACGUCGU, for which the “self-splicing fitness (ln)” value (30 °C) is -2.23 ± 0.11 and the “self-splicing fitness (ln)” value (37 °C) is -1.28 ± 0.11.
On to AGUCAGCAAUAUUACGGAGA, for which, for the setting “37 °C”, the “self-splicing fitness (ln)” value is -1.53 ± 0.38.
With CUGAAGCAAUAUUACGAGCC, the “self-splicing fitness (ln)” value (30 °C) is -3.13 ± 0.31.
Regarding UCUAAGCAAUAUUACGACCG, the “self-splicing fitness (ln)” value reads like this: (30 °C) -0.676 ± 0.14; (37 °C) -0.00302 ± 0.22.
Taken in the same sequence, the figures for CCGAAGCAAUAUUACGGACG were -0.955 ± 0.11 and 0.515 ± 0.12.
As to AUACAGCAAUAUUACGCCAA, the “self-splicing fitness (ln)” value reads like this: (30 °C) -2.6 ± 0.19; (37 °C) -1.22 ± 0.18.
As for UGAAAGCAAUAUUACGUUGG, the “self-splicing fitness (ln)” value (30 °C) is -2.36 ± 0.091 and the “self-splicing fitness (ln)” value (37 °C) was -1.66 ± 0.11.
Turning to GGCCAGCAAUAUUACGCUGC, the “self-splicing fitness (ln)” value (37 °C) is -1.67 ± 0.22.
For GACAAGCAAUAUUACGGACU, the “self-splicing fitness (ln)” value (30 °C) is -1.17 ± 0.075 and the “self-splicing fitness (ln)” value (37 °C) stood at 0.137 ± 0.087.
Taken in the same sequence, the figures for GCAAAGCAAUAUUACGGCAC were -0.648 ± 0.081 and -0.426 ± 0.09.
Consider CGCAAGCAAUAUUACGGAGA, for which the “self-splicing fitness (ln)” value reads like this: (30 °C) -3.09 ± 0.18; (37 °C) -2.54 ± 0.19.
Taken in the same sequence, the figures for ACGAAGCAAUAUUACGUACG were -3.8 ± 0.33 and -0.988 ± 0.15.
Taken in the same sequence, the figures for GACUAGCAAUAUUACGUCUA were -2.89 ± 0.2 and -0.852 ± 0.12.
Taken in the same sequence, the figures for ACAUAGCAAUAUUACGAGUG were -1.16 ± 0.073 and -1.05 ± 0.09.
